Results reported in paper PMC11863771 (Cell Communication and Signaling : CCS, 2025).
Blank lines part the entries; values can stand above or below the binder they belong to.

How the values were obtained:
[1] = biological target: T1, CXCR4-Rluc8 (human, UniProt P61073 1-352); test: FRET or BRET; quantitative BRET saturation in HEK293A cells: fixed amount of Rluc8-tagged donor, increasing amounts of mCit-tagged acceptor, coelenterazine h 5 µM; no ligand, no further receptor coexpressed; conditions: partners not purified
T1 construct: C-X-C chemokine receptor type 4 (CXCR4), human cDNA from the Missouri S&T cDNA Resource Center; source: HEK293A, transiently transfected, in cells; not shown: Rluc8, C-terminal, kept

[2] = biological target: T2, CXCR4-Rluc8 (human), P61073; test: as above; conditions: remark: other sources report otherwise
T2 chain: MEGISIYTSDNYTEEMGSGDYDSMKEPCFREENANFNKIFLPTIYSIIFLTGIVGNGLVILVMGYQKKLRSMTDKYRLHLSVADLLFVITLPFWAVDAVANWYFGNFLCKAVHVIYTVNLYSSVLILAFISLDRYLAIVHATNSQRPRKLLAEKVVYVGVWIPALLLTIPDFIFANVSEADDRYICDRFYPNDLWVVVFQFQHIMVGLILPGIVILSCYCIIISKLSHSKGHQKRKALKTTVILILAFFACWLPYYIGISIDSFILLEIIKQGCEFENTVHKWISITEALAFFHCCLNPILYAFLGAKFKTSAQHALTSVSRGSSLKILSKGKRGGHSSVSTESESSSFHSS

[3] = biological target: T2, CXCR4-Rluc8 (human), P61073; test: FRET or BRET; quantitative BRET saturation in HEK293A cells, CXCR4-Rluc8 and CXCR4-mCit, with S1P1 coexpressed, with CXCL12 (10 nM); conditions: remark: other sources report otherwise
[4] = biological target: T2, CXCR4-Rluc8 (human), P61073; test: FRET or BRET; quantitative BRET saturation in HEK293A cells: fixed amount of Rluc8-tagged donor, increasing amounts of mCit-tagged acceptor, coelenterazine h 5 µM; no ligand, no further receptor coexpressed; conditions: remark: other sources report otherwise
[5] = biological target: T2, CXCR4-Rluc8 (human), P61073; test: FRET or BRET; quantitative BRET saturation in HEK293A cells, CXCR4-Rluc8 and CXCR4-mCit, with S1P1 coexpressed, vehicle; conditions: remark: other sources report otherwise
[6] = biological target: T2, CXCR4-Rluc8 (human), P61073; test: FRET or BRET; quantitative BRET saturation in HEK293A cells, CXCR4-Rluc8 and CXCR4-mCit, without S1P1, with CXCL12 (10 nM); conditions: remark: other sources report otherwise

B3: mCit-tagged S1P1(TM4) (receptor, human)
chain: MGPTSVPLVKAHRSSVSDYVNYDIIVRHYNYTGKLNISADKENSIKLTSVVFILICCFIILENIFVLLTIWKTKKFHRPMYYFIGNLALSDLLAGVAYTANLLLSGATTYKLTPAQWFLREGSMFVALSASVFSLLAIAIERYITMLKMKLHNGNKRHRVFLLIGMCWLIAFTLGALPILGWNCLHNLPDCSTVLPLYHKHYILFCTTVFTLLLLSIVILYCRIYSLVRTRSRRLTFRKNISKASRSSEKSLALLKTVIIVLSVFIACWAPLFILLLLDVGCKVKTCDILFRAEYFLVLAVLNSGTNPIIYTLTNKEMRRAFIRIMSCCKCPSGDSAGKFKRPIIAGMEFSRSKSDNSSHPQKDEGDNPETIMSSGNVNSSS
notes: S1P1, human, the part before the printed TM4 stretch (SNNFRL...); TM4 of S1P3, human, put in place of TM4 of S1P1; S1P1, human, the part after the printed TM4 stretch (...ALSSCS); TM4 of S1P1 ([residues removed]) replaced with TM4 of S1P3; source: HEK293A, transiently transfected, in cells; not shown: mCitrine (mCit), C-terminal, kept
BRET50 [1]: 7.19 ± 0.559

B4: CXCR4-mCit, P61073 1-352 (receptor)
chain: MEGISIYTSDNYTEEMGSGDYDSMKEPCFREENANFNKIFLPTIYSIIFLTGIVGNGLVILVMGYQKKLRSMTDKYRLHLSVADLLFVITLPFWAVDAVANWYFGNFLCKAVHVIYTVNLYSSVLILAFISLDRYLAIVHATNSQRPRKLLAEKVVYVGVWIPALLLTIPDFIFANVSEADDRYICDRFYPNDLWVVVFQFQHIMVGLILPGIVILSCYCIIISKLSHSKGHQKRKALKTTVILILAFFACWLPYYIGISIDSFILLEIIKQGCEFENTVHKWISITEALAFFHCCLNPILYAFLGAKFKTSAQHALTSVSRGSSLKILSKGKRGGHSSVSTESESSSFHSS
BRET50 [2]: 15.6
BRET50 [3]: 20.1
BRET50 [4]: 2.74
BRET50 [5]: 22.8
BRET50 [6]: 9.53

B5: mCit-tagged S1P3(TM3) (receptor, human)
chain: MATALPPRLQPVRGNETLREHYQYVGKLAGRLKEASEGSTLTTVLFLVICSFIVLENLMVLIAIWKNNKFHNRMYFFIGNLALCDLLAGIAYKVNILMSGKKTFKLTPAQWFLREGSMFVALSASVFSLLAIAIERYITMLKMKLHNGNKRHRVFLLIGMCWLIAFTLGALPILGWNCLHNLPDCSTILPLYSKKYIAFCISIFTAILVTIVILYARIYFLVKSSSRKVANHNNSERSMALLRTVVIVVSVFIACWSPLFILFLIDVACRVQACPILFKAQWFIVLAVLNSAMNPVIYTLASKEMRRAFFRLVCNCLVRGRGARASPIQPALDPSRSKSSSSNNSSHSPKVKEDLPHTAPSSCIMDKNAALQNGIFCN
notes: S1P3, human, the part before the printed TM3 stretch (SLSPTV...); TM3 of S1P1, human, put in place of TM3 of S1P3; S1P3, human, the part after the printed TM3 stretch (...RPYDA); TM3 of S1P3 ([residues removed]) replaced with TM3 of S1P1; source: HEK293A, transiently transfected, in cells; not shown: mCitrine (mCit), C-terminal, kept
BRET50 [1]: 6.97 ± 0.473

Second part, the binder after the results:

BRET50 [1]: 12.7 ± 0.687
B1: mCit-tagged S1P3(TM4) (receptor, human)
chain: MATALPPRLQPVRGNETLREHYQYVGKLAGRLKEASEGSTLTTVLFLVICSFIVLENLMVLIAIWKNNKFHNRMYFFIGNLALCDLLAGIAYKVNILMSGKKTFSLSPTVWFLREGSMFVALGASTCSLLAIAIERHLTMIKMRPYDASNNFRLFLLISACWVISLILGGLPIMGWNCISALSSCSTILPLYSKKYIAFCISIFTAILVTIVILYARIYFLVKSSSRKVANHNNSERSMALLRTVVIVVSVFIACWSPLFILFLIDVACRVQACPILFKAQWFIVLAVLNSAMNPVIYTLASKEMRRAFFRLVCNCLVRGRGARASPIQPALDPSRSKSSSSNNSSHSPKVKEDLPHTAPSSCIMDKNAALQNGIFCN
notes: S1P3, human, the part before the printed TM4 stretch (NKRHRV...); TM4 of S1P1, human, put in place of TM4 of S1P3; S1P3, human, the part after the printed TM4 stretch (...NLPDCS); TM4 of S1P3 ([residues removed]) replaced with TM4 of S1P1; source: HEK293A, transiently transfected, in cells; not shown: mCitrine (mCit), C-terminal, kept

BRET50 [1]: 7.24 ± 0.501
B2: mCit-tagged S1P1(TM3) (receptor, human)
chain: MGPTSVPLVKAHRSSVSDYVNYDIIVRHYNYTGKLNISADKENSIKLTSVVFILICCFIILENIFVLLTIWKTKKFHRPMYYFIGNLALSDLLAGVAYTANLLLSGATTYSLSPTVWFLREGSMFVALGASTCSLLAIAIERHLTMIKMRPYDASNNFRLFLLISACWVISLILGGLPIMGWNCISALSSCSTVLPLYHKHYILFCTTVFTLLLLSIVILYCRIYSLVRTRSRRLTFRKNISKASRSSEKSLALLKTVIIVLSVFIACWAPLFILLLLDVGCKVKTCDILFRAEYFLVLAVLNSGTNPIIYTLTNKEMRRAFIRIMSCCKCPSGDSAGKFKRPIIAGMEFSRSKSDNSSHPQKDEGDNPETIMSSGNVNSSS
notes: S1P1, human, the part before the printed TM3 stretch (KLTPAQ...); TM3 of S1P3, human, put in place of TM3 of S1P1; S1P1, human, the part after the printed TM3 stretch (...KLHNG); TM3 of S1P1 ([residues removed]) replaced with TM3 of S1P3; source: HEK293A, transiently transfected, in cells; not shown: mCitrine (mCit), C-terminal, kept
